In the RNAGym collection of RNA variant scans (doi:10.7554/elife.80360) one finds self-cleavage data, which are given here for 32 variants.

Sequences and labels used below:
B1: HDV Ribozyme (parent)
chain: GGCCGGCAUGGUCCCAGCCUCCUCGCUGGCGCCGGCUGGGCAACAUUCCGAGGGGACCGUCCCCUCGGUAAUGGCGAAUGGGACCCA

The variants in this data set derive from B1. Nature of the data set: self-cleavage, relative activity (ratio to wild type); higher = more cleavage; co-transcriptional.
Consider GGCCGGCAUGGUCCCAGACUCCUCGCUGGCGCCGGCUGGGCAACAUUCCCAGGGGACCGUCCCCUCGGUAAUGGCGAAUGGGACCCA [C18A G50C], for which the self-cleavage is 0.219. In the case of GGCCUGCAUGGUCCCAGCCUCCUCGCUGGCGCCGGCUGGGCAACAUUCCGAGGGGACCGUCCGCUCGGUAAUGGCGAAUGGGACCCA [G5U C63G] it was 0; in that of GGCCGGCUUGGUCCCAGCCUCCUCGCUGGCGCCGGCUGGGCAACAUUCCGAGGGGACCGUCCCCUCCGUAAUGGCGAAUGGGACCCA [A8U G67C], 0.718; in that of GGCCGGCAUGGUCCCAGCCUCCUCGCUGGCGCCGGCUGGACAACAUUCCGAGGGGACCGUCCCCUCGGUAAUGGCGAAUGGGAUCCA [G40A C84U], 0.377. In the case of GGCCGGCAUGGUCCCAGCCUCCUCGCUGGCGCCGGCUGGGCAACAUUCCGAGGUGACCGUCCCCUCGGUAAUGGCGAAUGGGACCCG [G54U A87G] it was 0.933; in that of GGCCGGCAUGGUCCCAGCCUCCUCGCUGGCGCCGGCUGGGCAACAUUCCGAGGGGUCCGUCUCCUCGGUAAUGGCGAAUGGGACCCA [A56U C62U], 0.847.

As to GGCCGGCAUGGUCCCAGCCUCCUCGCUGGCGCCGGCUGGGAAACACUCCGAGGGGACCGUCCCCUCGGUAAUGGCGAAUGGGACCCA [C41A U46C], the self-cleavage is 0.415.

With GGCCGGCAUGGUCCCAGCCUCCUCGCUGGCGCCGGCUGGGCAACAUUCCGAGGGGACCGUCCCCCCCGUAAUGGCGAAUGGGACCCA [U65C G67C], the self-cleavage was 0.984. In the case of GGCCGGCAUGGUCCCAGCCUCCUCGCUGGCGCCGGCUGGGCAACAUUCCGAGGGGUCCGUCCCCUCGGUAAUGGCGAAUGGGACGCA [A56U C85G] it was 0.982; in that of CGCCGGCAUGGUCCCAGCCUCCUCGCUGGCGCCGGCUGGGCAACAUUCCGAGGGGACCGUCCCCUCGGUAAUGGUGAAUGGGACCCA [G1C C75U], 0.227; in that of GGCCGGCAUGGUCCCAGCCUCCUCGCUGGCGCCGGCUGGGCAACAUUCCGAGGGGACCGUCCCCUAUGUAAUGGCGAAUGGGACCCA [C66A G67U], 0.878. GGCCGGCAUGGUCCCAGCCUCCUGGCCGGCGCCGGCUGGGCAACAUUCCGAGGGGACCGUCCCCUCGGUAAUGGCGAAUGGGACCCA [C24G U27C]: the self-cleavage was found to be 0.0791. With GGCCGGCAUGGUCCCAGCCUCCUCGCUGGCGCCGGCUGGGCAACAUUCCGAGGGGACCGUCCCCUCAGUAAUGGCGAAUGUGACCCA [G67A G81U], the self-cleavage is 0.101. The result for GGCCGGCAUAGUCCCAGCCUCCUCGCUGGCGGCGGCUGGGCAACAUUCCGAGGGGACCGUCCCCUCGGUAAUGGCGAAUGGGACCCA [G10A C32G] reads 0.0966; that for GGCCGGCAUGGUCCCAGCCUCCUCGCUGGAGCCGGCUGGGCAACAUUCCGAGGGGAACGUCCCCUCGGUAAUGGCGAAUGGGACCCA [C30A C57A], 0.688.

Consider GGCCGGCAUGGUCCCAGCCUCCUCGCUGGCGCCGGCUGGGCAACAUUCAGAGGGGACCGUCCCCUCGGUAAUGGCGAAUGGGACCAA [C49A C86A], for which the self-cleavage came to 1.22. The result for GGCCGGCAUGGUCCCAGCCUCCUCGCUGUCGCCGGCUGGGCAACAUUCCGAGGGGACCGUCCCCUCGGUUAUGGCGAAUGGGACCCA [G29U A70U] reads 0.0923. The result for GGCCGGCAUGGUCCCAGCCUUCUCUCUGGCGCCGGCUGGGCAACAUUCCGAGGGGACCGUCCCCUCGGUAAUGGCGAAUGGGACCCA [C21U G25U] reads 0.0811. For the variant GGCCGGCAUGGUCCCAGCCUCCUCGCUCGCGCCUGCUGGGCAACAUUCCGAGGGGACCGUCCCCUCGGUAAUGGCGAAUGGGACCCA [G28C G34U], the self-cleavage was 0.0386. In the case of GGACGGUAUGGUCCCAGCCUCCUCGCUGGCGCCGGCUGGGCAACAUUCCGAGGGGACCGUCCCCUCGGUAAUGGCGAAUGGGACCCA [C3A C7U] it was 0.188. The result for GGCCGGCAUGGUCCCAGCUUCCUCGCUGGCGCCGGCUGGGCAACAUCCCGAGGGGACCGUCCCCUCGGUAAUGGCGAAUGGGACCCA [C19U U47C] reads 0.111; that for GGCUGGCAUGGUCCCAGCCUCCUCGCUGGCGCCGGCUGGGCAACAUUCCGAGGGGACCGUCCCCUCGGUAAUGGCGAAUGGGACUCA [C4U C85U], 0.665. In the case of GGCCGGCAUGGUCCUAGCCUCCUCGCUGGCGCCGGCUGGGCAACAUUCCGAGGGGACCGUCCCCUCGCUAAUGGCGAAUGGGACCCA [C15U G68C], the self-cleavage stood at 0.597. The result for GGCCGGCAUGGUCCAAGCCUCCUCGCUGGCGCCGGCUGGGCGACAUUCCGAGGGGACCGUCCCCUCGGUAAUGGCGAAUGGGACCCA [C15A A42G] reads 0.104.

With GGCCGGCAUGGUCCCAGCCUCCUCGCUGGCCCCGGCUGGGCAACAUUCCGAGGGGACCGUCCCCUCGGUAAUGGCGAAUGGGACCAA [G31C C86A], the self-cleavage was found to be 0.312. In the case of GGCCGGCAUGGUCCCAGCCUCCUAGCUGGCGCCGGCUGGGCAACAUUCCGAGGGCACCGUCCCCUCGGUAAUGGCGAAUGGGACCCA [C24A G55C] it was 0.818; in that of GGCCGGCAUGGUCCCAGCCUCCUCGCUGGCGCCGGCUGGGCAACAUUCCGAGGGGACCGUCACCGCGGUAAUGGCGAAUGGGACCCA [C62A U65G], 0.359. In the case of GGCCGGCAUGGUCCCAGCCACCUCGCUGGCGCCGGCUGGGCAACAUUCCGUGGGGACCGUCCCCUCGGUAAUGGCGAAUGGGACCCA [U20A A51U] it was 0.104. For GGCCGGCAUGGUCCCAGCCUCCUCGCUGGCGCCGGCUGGGCAACAUUCCGACGGGACCGUCCCCUCGGUAAUGGCGAAUUGGACCCA [G52C G80U], the self-cleavage was 0.299. The result for GGCCGGCAUGGUCCCAGCCUCCUCGCUGGCGCCGGCUGGGCAACACUCCGAGGGGACCGUCACCUCGGUAAUGGCGAAUGGGACCCA [U46C C62A] reads 0.623; that for GGCCGGCAUGGUCCCAGCCUCCUCGCUGGCGCCGGCUGGGCAACAUUCCGGGGGGACCGUCCCCUAGGUAAUGGCGAAUGGGACCCA [A51G C66A], 0.889; that for GGCUGGCAUGGUCCCAGCCUCCUCGCUGGCGCCGGCUGGGCAGCAUUCCGAGGGGACCGUCCCCUCGGUAAUGGCGAAUGGGACCCA [C4U A43G], 0.
